Data reported in patent US20220227830A1, “QD DOSING OF GIP RECEPTOR AGONIST PEPTIDE COMPOUNDS AND USES THEREOF” (Takeda Pharmaceutical Company Limited, priority 2020, published 2022).
Starred links: 1 amine or outer side, 2 acyl side, 3 side chain; linkers in the order of their positions; H or OH if unused. Non-standard residues stand in square brackets, D forms with d. Groups on a side chain read outwards from the residue. *: point of attachment. C15 diacid = O=C(O)CCCCCCCCCCCCCC(=O)*; γGlu = O=C(O)[C@H](CCC(=O)[*:2])N[*:1]; Aib = CC(C)(N)C(=O)O

Assays:
[1] = biological target: T1, full-length human GIPR with an N-terminal FLAG tag, overexpressed on HEK-293T cells (human, UniProt P48546 22-466); assay: cell-based or functional assay
T1 sequence (looked up): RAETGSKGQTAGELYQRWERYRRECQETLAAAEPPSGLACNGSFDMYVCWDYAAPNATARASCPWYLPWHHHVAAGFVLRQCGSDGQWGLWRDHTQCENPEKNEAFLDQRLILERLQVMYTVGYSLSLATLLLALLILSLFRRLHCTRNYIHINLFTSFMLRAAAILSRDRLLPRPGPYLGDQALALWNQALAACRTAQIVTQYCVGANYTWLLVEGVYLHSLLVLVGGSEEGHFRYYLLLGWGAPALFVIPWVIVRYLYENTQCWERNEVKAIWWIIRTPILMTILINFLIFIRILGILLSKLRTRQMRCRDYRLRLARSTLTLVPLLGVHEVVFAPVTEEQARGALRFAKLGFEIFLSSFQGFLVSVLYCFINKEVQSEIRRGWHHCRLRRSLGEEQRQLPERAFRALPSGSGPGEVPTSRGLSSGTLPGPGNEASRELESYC

[2] = biological target: full-length human GLP-1R with an N-terminal FLAG tag, overexpressed on HEK-293T cells (human, UniProt P43220 24-463); assay: cell-based or functional assay

Row | Binder | Human GIPR cAMP, HEK293T EC50 [1] [nM] | Human GLP1R cAMP HEK293T EC50 [2] [nM]
1 | Me-Y[Aib]EGTFISDYSIALDR[Aib]AQ[Aib]K([2OEG-γGlu-γGlu-C15 diacid])FVNWLLAQK-NH2 [Compound 210] | 0.0003 | 129
2 | Me-Y[Aib]EGTFISDYSIALDR[Aib]AQ[Aib]K([2OEG-γGlu-γGlu-C15 diacid])FVNWLLAQRG-OH [Compound 211] | 0.0002 | 174
3 | Me-Y[Aib]EGTFISDYSIALDR[Aib]AQ[Aib]K([2OEG-γGlu-γGlu-C15 diacid])FVNWLLAQKPSSGAPPPS-NH2 [Compound 209] | 0.0003 | 479
4 | Me-Y[Aib]EGTFISDYSIALDR[Aib]AQ[Aib]K([2OEG-C15 diacid])FVNWLLAQKG-OH [Compound 218] | 0.0006 | 89.1
5 | Me-YGEGTFISDYSIALDR[Aib]AQ[Aib]K([2OEG-γGlu-γGlu-C15 diacid])FVNWLLAQKG-OH [Compound 206] | 0.0013 | 145
6 | Me-Y[Aib]EGTFISDYSIALDR[Aib]AQ[Aib]K([2OEG-γGlu-C15 diacid])FVNWLLAQKG-OH [Compound 213] | 0.0003 | 17
7 | Me-YAEGTFISDYSIALDR[Aib]AQ[Aib]K([2OEG-γGlu-γGlu-C15 diacid])FVNWLLAQKG-OH [Compound 217] | 0.0002 | 4.9
8 | Me-Y[Aib]EGTFISDYSIALDR[Aib]AQ[Aib]K([G5gEgE-C15 diacid])FVNWLLAQKG-OH [Compound 215] | 0.0002 | 45.7
9 | Me-Y[Aib]EGTFISDYSIALDR[Aib]AQ[Aib]KFVNWLLAQKG-OH (not fully specified (residues 1, 21)) [Compound 212] | 0.0002 | 66.1
10 | Me-Y[dA]EGTFISDYSIALDR[Aib]AQ[Aib]K([2OEG-γGlu-γGlu-C15 diacid])FVNWLLAQKG-OH [Compound 216] | 0.0003 | 34.7
